Here are results for one molecule from patent publication EP4676958A2 (dated 2026).

The target in the assay is T1, active human KLK7 (human, UniProt P49862 30-253).
T1 construct: mature; also called hKLK7; active form of hKLK7
Briefly: SPR, antibody captured on Protein A chip, 20 nM hKLK7 (FIG. 11A, 11F).

T1 sequence (P49862 30-253): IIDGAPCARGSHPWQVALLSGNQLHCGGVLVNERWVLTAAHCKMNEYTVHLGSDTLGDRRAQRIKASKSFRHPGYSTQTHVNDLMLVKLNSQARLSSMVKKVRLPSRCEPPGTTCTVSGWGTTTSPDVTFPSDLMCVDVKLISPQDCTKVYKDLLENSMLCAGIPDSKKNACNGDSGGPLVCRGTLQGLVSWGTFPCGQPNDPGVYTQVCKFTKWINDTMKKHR

B1: KLK7-L1-Ab8 (antibody, V domains shown)
VH: QVQLVQSGAEVKKPGASVKVSCKASGYTFTSEGIHWVRQAPGQGLEWMGSISASSGDTNYAQKLQGRVTMTTDTSTSTAYMELRSLRSDDTAVYYCARSAGYGARHWYFDLWGQGTMVTVSS
VL: DIQMTQSPSSLSASVGDRVTITCRASQSISSYLNWYQQKPGKAPKLLIYGASSLQSGVPSRFSGSGSGTDFTLTISSLQPEDFATYYCDQWYSTPPITFGGGTKVEIK
notes: captured on Protein A; also called KLK7-Ll-Ab8; KLK7- Ll-Ab8
As for B1, the binding result was “binds”.
